Measurements published in paper PMC10003956, “To the Understanding of Catalysis by D-Amino Acid Transaminases: A Case Study of the Enzyme from Aminobacterium colombiense” (Molecules, 2023).

How the values were obtained:
purified protein [1] = substrate: O=C(O)CCC(=O)C(=O)O; assay: purified protein; format: biochemical, Aminobacterium colombiense; details: 500 mM D-alanine, 60 µM PLP, 50 mM CHES, pH 9.0, 60 °C
purified protein [2] = substrate: N[C@H](CCC(=O)O)C(=O)O; assay: purified protein; format: biochemical, Aminobacterium colombiense; details: 500 mM pyruvate, 60 µM PLP, 50 mM K-phosphate, pH 8.0, 60 °C

B1: AmicoTA (Aminobacterium colombiense DSM 12261) (protein)
chain: MNLCYIDGKFLPLEEAKLPVTDLIIQRGVGVFETISTHSRRPLMLTPHLKRLEGSATASSIVMPATLDEMARIIREGIKKMGCETMVRPYITGGDSFGKDHLFSSSRYFVIFEEIRKPDPILYEKGVALHPINAERYLPSTKSINYMLSFTGQRDSKGAYEILYCPEGEIVEGSHSTFFLIKNGHLITAPTSRALSGTTRQIVLELARRGNIQVEERCPLLTELPEAEEAFITGTVKELLPVVRIGDQIIGNGVPGKLTKHLHQVYLSSIVEWLE
notes: N-terminal His6-TEV tag kept for kinetics, cut for crystals; E. coli Rosetta (DE3) pLysS
Km (purified protein [1]): 7.2 ± 0.8 mM
kcat (purified protein [1]): 9.9 ± 1.3 s⁻¹
kcat/Km (purified protein [1]): 1380 ± 330 M⁻¹ s⁻¹
Km (purified protein [2]): 5.2 ± 0.6 mM
kcat (purified protein [2]): 1.4 ± 0.06 s⁻¹
kcat/Km (purified protein [2]): 270 ± 40 M⁻¹ s⁻¹
